The text below walks through data of patent publication US20190112362A1 (published 2019).

The assay concerns the target Monomeric cynomolgus monkey Tau (cynomolgus monkey, UniProt P57786 2-459 (rhesus entry)). Put plainly: SPR, hIgG captured, cynomolgus Tau monomer analyte, 1:1 model.

Chain of Monomeric cynomolgus monkey Tau (P57786 other isoform, or with tags, fused parts or gaps limits assumed, form in doubt): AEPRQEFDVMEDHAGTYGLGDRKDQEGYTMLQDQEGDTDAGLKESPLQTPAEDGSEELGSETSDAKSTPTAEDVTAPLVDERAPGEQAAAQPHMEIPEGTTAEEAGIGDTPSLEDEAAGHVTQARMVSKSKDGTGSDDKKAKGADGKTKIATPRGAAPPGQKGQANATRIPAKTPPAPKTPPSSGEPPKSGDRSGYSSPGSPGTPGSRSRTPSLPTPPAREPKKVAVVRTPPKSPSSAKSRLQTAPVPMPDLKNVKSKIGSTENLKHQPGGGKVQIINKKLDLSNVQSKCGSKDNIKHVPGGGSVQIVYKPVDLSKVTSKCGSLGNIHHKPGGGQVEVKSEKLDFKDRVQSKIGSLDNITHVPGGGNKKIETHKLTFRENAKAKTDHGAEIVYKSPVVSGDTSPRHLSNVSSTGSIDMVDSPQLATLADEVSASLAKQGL

B1: hu37D3.v28.A4 (antibody, V domains shown)
VH: EVQLVESGGGLVQPGGSLRLSCAASGLIFRSYGMSWVRQAPGKGLEWVATINSGGTYTYYPDSVKGRFTISRDNSKNTLYLQMNSLRAEDTAVYYCANSYSGAMDYWGQGTLVTVSS
VL: DDVLTQTPLSLPVTPGQPASISCRSSQSIVHSNGNTYLEWYLQKPGQSPQLLIYKVSNRFSGVPDRFSGSGSGTDFTLKISRVEAEDVGVYYCFQGSLVPWTFGQGTKVEIK
notes: also called hu37D3-H9.v28.A4
Turning to B1, binding was put at a Kd of 0.7 nM; the koff (in general, a measure of how fast the partners let go of each other) was 0.001 s⁻¹; the kon (in general, the second-order rate constant of association) came to 1.7e+06 M⁻¹ s⁻¹.

B2: hu37D3-H9.v5 (antibody, V domains shown)
VH: EVQLVESGGGLVQPGGSLRLSCAASGLIFRSYGMSWVRQAPGKGLEWVATINSGGTYTYYPDSVKGRFTISRDNSKNTLYLQMNSLRAEDTAVYYCANSYSGAMDYWGQGTLVTVSS
VL: EDVLTQTPLSLPVTPGQPASISCRSSQSIVHSNGNTYFEWYLQKPGQSPQLLIYKVSNRFSGVPDRFSGSGSGTDFTLKISRVEAEDVGVYYCFQGSLVPWTFGQGTKVEIK
notes: Kappa2 framework
Turning to B2, the equilibrium dissociation constant (Kd) (usually a measure of binding affinity in units of concentration) is 0.6 nM, the dissociation rate constant (koff) came out at 0.001 s⁻¹ and the kon came out at 1.5e+06 M⁻¹ s⁻¹.

B3: hu37D3-H9.v1 (antibody, V domains shown)
VH: EVQLVESGGGLVQPGGSLRLSCAASGLIFRSYGMSWVRQAPGKGLEWVATINSGGTYTYYPDSVKGRFTISRDNSKNTLYLQMNSLRAEDTAVYYCANSYSGAMDYWGQGTLVTVSS
VL: EDQLTQSPSSLSASVGDRVTITCRSSQSIVHSNGNTYFEWYQQKPGKSPKLLIYKVSNRFSGVPSRFSGSGSGTDFTLTISSLQPEDFATYYCFQGSLVPWTFGQGTKVEIK
notes: Kappa1 framework
B3 had a Kd of 0.8 nM and a kon of 2e+06 M⁻¹ s⁻¹.
